The nature of this data set: yeast display, Sf9 membrane polyspecificity reagent, FACS + sequencing; frameworks hold sequencing errors. The method in brief:
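Nanobodies came from a synthetic yeast display library in Saccharomyces cerevisiae BJ5465, induced with galactose for 36–48 hours and stained for 1 hour at 4 °C with 10% biotinylated, detergent-solubilized Sf9 membrane reagent. Cells were enriched on streptavidin microbeads and then FACS-sorted, with low and high (top ~1%) gates set on anti-HA fluorescence for expression and streptavidin fluorescence for reagent binding. Each polyreactivity label reflects the gate a clone came from. Genes were amplified by colony PCR, sequenced by MiSeq 2 × 250 and filtered by CDR length.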
As to “QVQLVESGGGIVQAGGSLRLSCAASGFLYFFYAMGWYRQAPRKQRELVAANSDGVSTYYADSVKGRFTISRDNAKNTVYLQMNSLKPEDTAVFYCAVSRGDDPEFDYWGQCTQVTVSS”, the “polyreactivity (PSR sort gate)” value was “low polyreactivity”.

As to “QVQLVESGGGIVQAGGSLRLSCAASGFTFIRYAMLWYRQAPGIERELVAAITSSGGSTYSADSVKGRFTISRDNAKNTVYLQKNSLKPEDTAVYYCATVYSGPVRAIGYDYWGQGTQVTVSS”, the “polyreactivity (PSR sort gate)” value is on record as “high polyreactivity”.

Regarding “QVQLVESGGGIVQAGGSLRLSCAASGFTFKKYAMGWYRQAPGKERELVAAISRSGGRTYYADSVKGRFTISRDNAKNTVFLQMNSLKPEDTAVYYCNADYYSAAYYYWGQGTQVTVSS”, the “polyreactivity (PSR sort gate)” value is given as “high polyreactivity”.

Take “QVQLVESGGGIVQAGGSLRLSCAASGFTFQFYAMGWYRQAPGKEREFVAAISGSGGSTYYADSVKGRFTISRDNAKNTVYLQMNSLKPEDTAVYYCAAEVPGKPYRRSRYSFRHDYWGQGTQVTVSS”: the “polyreactivity (PSR sort gate)” value is listed as “low polyreactivity”.

Take “QVQLVESGGGIVQAGGSLRLSCAASGFTFYYKAMGWYRQAPGKERELVAAISRGGRTNYADSVKGRFTISRDNAKNTVYLEMNSLTPADTAVYYCAADRYNGVYAVYYYGYDYWGQGTKVTVSS”: the “polyreactivity (PSR sort gate)” value was “high polyreactivity”.

As to “QVQLVESGGGIVQAGGSLRLSCAASGFTYVYYVMGWYRQAPGKDRELVAAINAGGGSTYYADSVKGRFTNSRDIAKNTVYLQMNSLKPEDTADYYCNARVRVRLGRNWSSYYYWGQGTQVTVSS”, the “polyreactivity (PSR sort gate)” value is “high polyreactivity”.

In the case of “QVQLVESGGGIVQAGGSLRLSCAASGGIFWRYAMGWYRQAPGKERELVAAISSRGGSTYYADSVKGRFTISRDNAKNTVYLQMNSLKPEDTAVYYCAADRRYAESGYYWGHGTQVTVSS”, the “polyreactivity (PSR sort gate)” value is “high polyreactivity”.

As for “QVQLVESGGGIVQAGGSLRLSCAASGGTCWFYDMGWYRQAPGKERELVAAINSDGSTYYADSVKGRFTISRDNAMNTVYLQMNSLQPEDTAVYYCAADISLHWYYYRRYNYWGQGTQGTVSS”, the “polyreactivity (PSR sort gate)” value is given as “low polyreactivity”.

As for “QVQLVESGGGIVQAGGSLRLSCAASGGTFIRYAMGWYRQAPGKEREFVAAISASGGSTYYADSVKGRFTISRDNAKNTVYLQMNSLKPEDTAVYYCAARRTNLPVKFYYWGQGTQVTVSS”, the “polyreactivity (PSR sort gate)” value was “high polyreactivity”.

Consider “QVQLVESGGGIVQAGGSLRLSCAASGGTFTRYAMGWYRQAPGKEREFVAAISGSGGSTYYADSVKGRFTISRDNAKNTVYLQMNSLKPVDTAVYYCNKVPVYPPSYYWGQGTQVTVSS”, for which the “polyreactivity (PSR sort gate)” value is listed as “low polyreactivity”.

As for “QVQLVESGGGIVQAGGSLRLSCAASGIIIQYYAMGWYRQAPGKERELVAAISWSGGSTYYADSVKGRFTISRDNAKNTVYLQMNSLKPEDTAVYYCAARSRSYWPYEGDYWGQGTQVTVSS”, the “polyreactivity (PSR sort gate)” value is “low polyreactivity”.

As to “QVQLVESGGGIVQAGGSLRLSCAASGISFLRYAMGWYRQAPGKEREFVAAINSIVGRTYYADSVKGRFTISRDNAKNTVYLQMNSLIPDDTAVYYCAADSNVRYGMDYWGQGTQVTVSS”, the “polyreactivity (PSR sort gate)” value is listed as “low polyreactivity”.

With “QVQLVESGGGIVQAGGSLRLSCAASGITFPLYVMGWYRQAPGKERELVAAISASGGSTYADSVKGRFTISRDNAKNTVYLQMNSLKPEDTAVYYCNADVYVGYDYDYWGQGTQVTVSS”, the “polyreactivity (PSR sort gate)” value is reported as “low polyreactivity”.

Regarding “QVQLVESGGGIVQAGGSLRLSCAASGITIYKYAMGWYRQAPGKERELLAAITRGGSTYYADSVKGRFTISRDNAKNTVYLQMNSLNPEDTAVYYCNKVYHWQTPGFGYGYWGQGTQVTVSS”, the “polyreactivity (PSR sort gate)” value is recorded as “high polyreactivity”.

Turning to “QVQLVESGGGIVQAGGSLRLSCAASGLTFWPYAMGWYRQARGKERELVAAISYNSGRTYYADSVKGRFTISRDNAKNTVYLQMNSLKPEDTEVYYCAVEWSLSRYYYWGQGTQVTVSS”, the “polyreactivity (PSR sort gate)” value is given as “high polyreactivity”.

Turning to “QVQLVESGGGIVQAGGSLRLSCAASGLTFWYYAMGGYRQAPGKVRELVARITRSGVGTYYADSVKGRFTISRDNAKNTVYLQMNSLKPEDTAVYYCAARYWVSGFRAGYYWGQGTQVTVSS”, the “polyreactivity (PSR sort gate)” value is reported as “high polyreactivity”.

“QVQLVESGGGIVQAGGSLRLSCAASGLTFYVYAMGWYREAPGKEREFVAAITWSGGSTYYADSVKGRFTISRDNAKNTVYLQMNSLKPEDTAVYYCAAETLWSELYYWGQGTQVTVSS”: the “polyreactivity (PSR sort gate)” value is on record as “high polyreactivity”.

As for “QVQLVESGGGIVQAGGSLRLSCAASGLTYGKYAMGWNRPAPGKERELVAANSRRGGSTYYADSVKGRFTISRDKAKNNDYLQMNRLKPEDSAVYYFNTDTKHTGLDYWGQGTQVSVSS”, the “polyreactivity (PSR sort gate)” value is “high polyreactivity”.

Take “QVQLVESGGGIVQAGGSLRLSCAASGNIFGQYAMGWYRQAPGKERELVAAITTTGSTYYADSVKGRFTISRDNAKNTVYLQMNSLKPEDTAVYYCAAVRYYPISYSEYWQYGYWGQGTQVTVSS”: the “polyreactivity (PSR sort gate)” value is “low polyreactivity”.

Take “QVQLVESGGGIVQAGGSLRLSCAASGNIFHQNAMGWYRQAPGKERELVAAISGSAGSTYYADSVKGRFTISRDNAKNTVYLQMNSLKPEDTAVYYCAADYYWLYNYWGQGTQVTVSS”: the “polyreactivity (PSR sort gate)” value is reported as “high polyreactivity”.

On to “QVQLVESGGGIVQAGGSLRLSCAASGNNFSLNGMGWYRQAPGKEREFLAAITWSVGSTYYAYSVNGRLTISRDNAKNTVYLQMNSLKPEDTAVYDCAATVSDLYKNEYYYWGLGTQVTVSS”, for which the “polyreactivity (PSR sort gate)” value is given as “low polyreactivity”.

In the case of “QVQLVESGGGIVQAGGSLRLSCAASGPIFGSYALRWARQAPGKERELVAAITRSGGSTYYADSVKGRFTISRDNAKNTVYLQMNILKPEDTAVYYCAAYFSFSGSAKFGYWGQGTQVTVSS”, the “polyreactivity (PSR sort gate)” value was “high polyreactivity”.

As to “QVQLVESGGGIVQAGGSLRLSCAASGPTFYLYDTMGWYRQAPGKERELVAAISWDDGDTYYADSVKGRFTISRDNAKNTVYLQMNSLKPEDTAVYYCAAESLSGAHGYWGQGTQVTVSS”, the “polyreactivity (PSR sort gate)” value is “low polyreactivity”.

Consider “QVQLVESGGGIVQAGGSLRLSCAASGRIFGFYAMVWYRQAPGNERELVAAITINTGSTSYADSVKGRFTSSRDNAKNTDSLPMNSLKPEDTAVYYCATDAAAPKYDYWGQGPQVTVSS”, for which the “polyreactivity (PSR sort gate)” value is listed as “low polyreactivity”.

In the case of “QVQLVESGGGIVQAGGSLRLSCAASGRIFGGNAMGWYRQAPGKERELVADISYGGGSTNYADSVKGRFTISRDNAKNTVYLQMNSLKPVDTAVYYCARDAWNTDGAYIGGDYDYWGQGTQVNVSS”, the “polyreactivity (PSR sort gate)” value was “low polyreactivity”.

Turning to “QVQLVESGGGIVQAGGSLRLSCAASGRIFGRYAMGWYIQAPGKERELVAAISRSGGSTYYADSVKGRFTISRDNAKYTVYLQMNSLKPEDTAVYYCNAKYVRAGDTYDYWGQGTQVTVSS”, the “polyreactivity (PSR sort gate)” value is “high polyreactivity”.

Consider “QVQLVESGGGIVQAGGSLRLSCAASGRIFGTYGMGWYRQAPGKERELVAAISGGGSTNYADSVKGRFTISRDNAKNTVYLQMNSLKPEDTAVYYCAARYPPYRSWYSYDYWGHGTQVTVSS”, for which the “polyreactivity (PSR sort gate)” value was “low polyreactivity”.

In the case of “QVQLVESGGGIVQAGGSLRLSCAASGRIFTQYTMGWYRQAPGKERELVAAINYSGGRTNYADSVKGRFTISRDIAKNTVYLQMNSLKPEDTAVYYCAAGYRRATYGYWGQGTQVTVSS”, the “polyreactivity (PSR sort gate)” value is reported as “high polyreactivity”.

Turning to “QVQLVESGGGIVQAGGSLRLSCAASGRIFVLNAMGWYRQAPGKERELVAAISKSAGSTYYADSVKGRFTISRDNAKNTVYLQMNSLKPEDTAVYYCNVGRRGHYLDAYDYWGQGTQVTVSS”, the “polyreactivity (PSR sort gate)” value is recorded as “high polyreactivity”.

On to “QVQLVESGGGIVQAGGSLRLSCAASGRNFTFYAMGWYRQAPGKERELVAAITKSGGSTYYADSVKGRFTISRDNAKNTVYLQMNSLKPEDTAVYYCAAGNHRRPADYGSWGQGTQVTVSS”, for which the “polyreactivity (PSR sort gate)” value is “low polyreactivity”.
